# Test results reported in PMC5245964 (eLife, 2017).
# B1: MBP-M18BP1^61–140/S110A-8His (domain or fragment, human, UniProt Q6P0N0 61-140, looked up)
# chain: NQFLKMTTFNNKNIFQSTMLTEATTSNSSLDISAIKPNKDGLKNKANYEAPGKIFLRMKEKVLRDKQEQPSRNSSLLEPQ
# notes: M18BP1 (KNL2), human, residues 61-140; also tested after CDK1:Cyclin B1 treatment; Ser110 is the only major site of 61-140, so no separate molecule was made; source: E. coli BL21-CodonPlus(DE3)-RIL, purified (Ni resin); not shown: MBP, N-terminal, kept; His8, C-terminal, kept
# Molecular target: T1, Mis18α:Mis18β complex (insect-cell-expressed) (human, UniProt Q9NYP9 1-233; O43482 1-229)
# T1 construct: Mis18α, human, the CDS of Mis18α; codon-optimized cDNA (GeneArt); Mis18β, human, the CDS of Mis18β; pre-formed complex used as one partner in pull-downs and reconstitution; also called Mis18α:Mis18β hexamer; source: Tnao38 insect cells, baculovirus co-expression, purified (Ni resin, His-TEVp cleavage, SEC); not shown: His6, N-terminal, cleaved; copies: 4 + 2
# T1 sequence (Q9NYP9 whole entry, chain 1 of 2): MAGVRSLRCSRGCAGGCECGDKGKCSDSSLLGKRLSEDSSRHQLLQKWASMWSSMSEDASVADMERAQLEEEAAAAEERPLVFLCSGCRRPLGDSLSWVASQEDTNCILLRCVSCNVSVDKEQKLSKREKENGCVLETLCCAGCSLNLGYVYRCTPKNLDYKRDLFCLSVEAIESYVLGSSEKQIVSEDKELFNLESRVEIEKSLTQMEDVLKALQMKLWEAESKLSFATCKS
# T1 sequence (O43482 whole entry, chain 2 of 2): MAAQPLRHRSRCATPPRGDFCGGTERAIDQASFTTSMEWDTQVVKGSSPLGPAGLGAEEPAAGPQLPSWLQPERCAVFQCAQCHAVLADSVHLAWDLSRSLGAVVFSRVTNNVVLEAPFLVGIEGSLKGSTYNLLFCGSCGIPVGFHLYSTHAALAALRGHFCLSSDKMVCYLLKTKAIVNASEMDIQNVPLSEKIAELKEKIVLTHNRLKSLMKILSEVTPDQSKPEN
# Assay: pull-down; MBP-tagged M18BP1 variant held on amylose resin, Mis18α:Mis18β in solution; proteins 3 μM, buffer HST300 (30 mM HEPES pH 7.5, 300 mM NaCl, 1 mM TCEP), 4°C, 30 min; CBB-stained Tricine–SDS-PAGE
# Details: both partners purified
binder,measurement,value
B1,binding result,binds
